# Residue numbers refer to the chain shown, from its start.
# T1: human CD112R antigen protein huCD112R-His (Acro Biosysterm, PVG-H52H4) (human, UniProt Q6DKI7 41-171)
# T1 construct: purchased; also called human antigen protein; not shown: His tag
# T1 sequence (looked up): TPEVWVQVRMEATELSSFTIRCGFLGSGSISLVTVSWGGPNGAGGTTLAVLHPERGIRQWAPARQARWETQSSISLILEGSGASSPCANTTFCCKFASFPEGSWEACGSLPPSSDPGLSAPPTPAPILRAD
# T2: monkey antigen protein (monkey CD112R, Uniprot ID: A0A2K5WVV8) (monkey, UniProt A0A2K5WVV8 41-171)
# T2 sequence: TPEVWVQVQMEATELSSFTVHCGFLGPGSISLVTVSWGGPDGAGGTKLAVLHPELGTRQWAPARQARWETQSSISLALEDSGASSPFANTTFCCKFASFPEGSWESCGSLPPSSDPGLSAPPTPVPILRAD
# T3: human CD112R on GS-J2C/CD112R effector cells (human, UniProt Q6DKI7 1-326)
# T3 sequence (looked up): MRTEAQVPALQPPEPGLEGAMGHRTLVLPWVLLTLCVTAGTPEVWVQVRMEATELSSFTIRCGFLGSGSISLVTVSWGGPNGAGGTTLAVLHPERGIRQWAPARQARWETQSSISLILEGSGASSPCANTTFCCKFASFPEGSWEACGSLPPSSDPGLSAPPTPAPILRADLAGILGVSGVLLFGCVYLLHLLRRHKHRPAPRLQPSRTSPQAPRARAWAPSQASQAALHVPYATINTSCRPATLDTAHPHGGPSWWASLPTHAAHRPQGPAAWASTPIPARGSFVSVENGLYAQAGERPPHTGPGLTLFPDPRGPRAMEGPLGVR
# B1: C67 (antibody, human IgG1, kappa, V domains shown)
# VH: EAQLQQSGPELVKPGASVKISCKASGYTFTDYYMNWVKQSHGKSLDWIGDINPDNGGSTYNQKFKGKATLTVDKSSSTAYMELRSLTSEDSAVYYCSASGPPYVLLDYWGQGTSVIVSS
# VL: DIQMTQSPASLSASVGETVTITCQTSENIYSYLAWYQQKQGKSPQLLVYNTQTLAEGVPSRFSGSRSGAQFSLKINSLQPEDFGSYYCQHHYGVPLTFGAGTKLELKR
# B2: C64 (antibody, human IgG1, kappa, V domains shown)
# VH: EVMLVESGGDLVKPGGSLKLSCAASGFTFSSYFMSWVRQTPEKRLEWVATISGGGDKTYYLDILKGRFTISRDNAKNTLYLQMSSLRSEDTALYYCARHEDYAWYAMDYWGQGTSVTVSS
# VL: QIVLTQSPAIMSASPGEKVTMTCSASSSVNYIYWYQQKPGSSPRLLIYDTSNLASGVPVRFSGSGSGTSYSLTISRMEAEDAATYYCQQWSSYPLTFGAGTKLELKR
# B3: C71 (antibody, human IgG1, kappa, V domains shown)
# VH: B2 VH with M3I, D10G, L18R, K57N, L61P, I63S, L64V, A103E
# VL: B2 VL with A13T, N30S, S91T
# B4: C124 (antibody, human IgG1, kappa, V domains shown)
# VH: EVQLVESGGGLVKPGGSLKLSCAASGFTFSSFAMSWVRQTPAKRLESVATINNGGINTYYPDTVKGRFTVSRDNAKNTLYLQMSSLRSEDTAMYYCARHDDFLYYAMDYWGQGTSVTVSS
# VL: B2 VL with N30S, I32M, S91T
# B5: C129 (antibody, human IgG1, kappa, V domains shown)
# VH: QVQLQQSGAELMTPGSSVKLSCKATGYTFTDYWIEWVKKRPGHGLEWIGEILPGYISTNYNEKFKDKATFTADTSSNTTYMQLSSLTSEDSAVYYCVLIVTTYYYFMDYWGQGTSVTVSS
# VL: QIVLTQSPAIMSASPGEKVTITCSASSSVTYMHWFQQKPGTSPKLWIYSTSNLASGVPVRFSGSGSGTSYSLTISRMEAEDAATYYCQQRSSYPWTFGGGTKLEIKR
# B6: C132 (antibody, human IgG1, kappa, V domains shown)
# VH: QVQLQQSGAELMKPGSSVNLSCKATDYTFTDYWINWVKQRPGHGLEWIGEILPGSVTTNYNEKFRGKATFTADTSSNTAYMQLSSLTSEDSAVYFCARGSDYSYYAMDYWGQGTSVTVSS
# VL: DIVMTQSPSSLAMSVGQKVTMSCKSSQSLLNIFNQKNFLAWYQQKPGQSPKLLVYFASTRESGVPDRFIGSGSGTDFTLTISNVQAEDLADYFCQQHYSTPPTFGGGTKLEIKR
# B7: C155 (antibody, human IgG1, kappa, V domains shown)
# VH: EVQLVESGGGLVKPGGSLRLSCAASGFTFSDYYMYWVRQAPGKGLEWVATISDAGGYTYYPDSVKGRFTISRDNAKNSLYLQMNSLRAEDTAVYYCGREDLWGQGTLVTVSS
# VL: DIQMTQSPSSLSASVGDRVTITCRASQDIGYSLNWFQQKPGKAPRRLIYATSRLDSGVPKRFSGSGSGTDFTLTISSLQPEDFATYYCLQYASFPYTFGGGTKLEIKR
# B8: C154 (antibody, human IgG1, kappa, V domains shown)
# VH: B7 VH with A49S, G97A
# VL: B7 VL with R45K
# B9: C156 (antibody, human IgG1, kappa, V domains shown)
# VH: B7 VH with Y95F
# VL: B7 VL with R45K
# What was measured:
# [1] = target: T1, human CD112R antigen protein …; assay: ELISA, huCD112R-His coated on plate
# [2] = target: T1, human CD112R antigen protein …; assay: SPR (Biacore X100), antibody captured on Protein A chip, huCD112R-His as analyte, 1:1 Langmuir
# [3] = target: T2, monkey antigen protein (monkey CD112R, …); assay: ELISA, monkey antigen protein (as Example 6.1)
# [4] = target: T3, human CD112R on GS-J2C/CD112R effector …; assay: cell-based or functional assay
EC50 [1],Kd [2],EC50 [3],"EC50 (Blocking effects of the antibodies, reporter gene method) [4]",Binder
0.06 nM,0.02 nM,0.08 nM,0.03 µg/mL,B1
0.034 nM,0.8 nM,0.054 nM,0.039 µg/mL,B2
0.037 nM,0.158 nM,0.05 nM,0.029 µg/mL,B3
0.033 nM,0.243 nM,0.059 nM,0.015 µg/mL,B4
0.034 nM,0.375 nM,–,0.045 µg/mL,B5
0.038 nM,0.156 nM,0.094 nM,0.024 µg/mL,B6
–,0.603 nM,–,0.082 µg/mL,B7
–,0.724 nM,–,0.071 µg/mL,B8
–,0.946 nM,–,0.096 µg/mL,B9
